Among the data in US20210363224A1 (CONSEJO SUPERIOR DE INVESTIGACIONES CIENT FICAS, published 2021) are Kd values, retold here.

For this test, the target named is T1, Recombinant human IL13 (PeproTech) (human, UniProt P35225 35-146, limits assumed).
T1 construct: Bought reagent; also called interleukin 13
The test is described as follows: SPR, BIAcore 3000, IL-13 amine-coupled to CM5 sensor chip (7700 RU), peptide as analyte. As to the method:
Binding of D1 peptide to IL-13 was monitored by surface plasmon resonance on a BIAcore 3000 instrument (BIAcore Inc, Switzerland). IL-13 was covalently amino coupled to a CM-5 sensor chip. An immobilization level of 7700 RU was obtained. A nonderivatized flow cell was used as a control. The interaction between D1 peptide and the immobilized IL13 was determined by changes in the RU at different D1 concentrations.
A direct quantitative analytical method as Biacore was used to determine the affinity of the D1 peptide binding to IL-13 (FIG. 3C). Some limitations in the quantitative adjustment to the established models of the Biacore instrument caused a difficult interpretation of the results and impede an accurate determination of the affinity.
(Surface plasmon resonance follows binding to a sensor surface in real time, without labels.)

T1 sequence (P35225 35-146 limits assumed): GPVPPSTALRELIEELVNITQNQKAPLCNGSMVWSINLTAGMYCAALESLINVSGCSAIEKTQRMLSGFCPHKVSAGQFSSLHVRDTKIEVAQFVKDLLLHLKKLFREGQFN

B1: IL13Rα2D1 peptide (GSETWKTIITKN) (peptide)
peptide: GSETWKTIITKN
notes: Made by solid phase synthesis; also called peptide IL13Rα2 D1; L-version
As to B1, the Kd (in general, the concentration at which binding is half-saturated) was around 100 µM.
